According to patent US20240150433A1, “ERT2 MUTANTS AND USES THEREOF” (Senti Biosciences, Inc., priority 2021, published 2024):

Legend:
[1] = following a typical clinical dose of tamoxifen; cited from earlier work
U87MG:1066 cells = assay: ERT2 mutant validation in U87MG with mCherry reporter; assay type: cell-based; details: validation screen versus wild-type ERT2
Procedure: About 16 hours before transduction 100k U87MG:1066 cells were seeded into 16 wells in 12 well plate format. During transduction, cells in each well were transduced with 100k pg of virus of ERT2 variant constructs. After transduction, cells were split in to 50k cells per well in a 24 well plate format, and treated with drug-free media or a range of endoxifen or 4-OHT drug conditions. About two days after treatment of cells with endoxifen or 4-OHT, cells were collected and mCherry reporter expression was quantified by flow cytometry.
Screening of the ERT2 mutant library identified a subset of ERT2 variants that were sensitive to endoxifen at 1 nM. Among this subset, 15 variants (Table 19) were validated in U87MG cells for their ability to activate an mCherry reporter (SB01066; FIG. 14B) at a range of concentrations of 0 pM, 10 pM, 50 pM, 100 pM, and 1 nM of endoxifen (FIG. 15A) and 4-OHT (FIG. 15B). Expression of mCherry was quantified about 24 hours after treatment with endoxifen or 4-OHT.
Select ERT2 variants (Table 20) from the previous screens were further tested for sensitivity to endoxifen and 4-OHT, compared to wild-type ERT2. […] Fold activation was calculated by gMFI mCherry levels of each test condition divided by gMFI mCherry levels of U87MG cells transduced with the reporter (SB01066).

NK cells = assay: Validation of ERT2 mutants with mCherry reporter in NK cells; assay type: cell-based; details: primary NK cells, mCherry by flow cytometry
Procedure: After 10 days of feeder cell activation, NK cells were co-transduced with ERT2 mutant virus and reporter SB01066 virus (Experimental Set-up 1). On Day 2 after transduction, transduced NK cells were treated with endoxifen or 4-OHT at a range of concentrations of 0 nM, 0.01 nM, 0.1 nM, 1 nM, and 10 nM. On Day 4, cells were checked for mCherry expression by flow cytometry.

Row | Molecule | average peak plasma concentration [1] | 4-OHT concentration at which mCherry expression is activated (U87MG:1066 cells) | endoxifen concentration at which mCherry expression is activated (U87MG:1066 cells) | 4-OHT concentration at which variant was sensitive (NK cells) [nM] | endoxifen concentration at which variant was sensitive (NK cells) [nM]
1 | CC/C(=C(\c1ccccc1)c1ccc(OCCN(C)C)cc1)c1ccccc1 [tamoxifen] | approximately 40 ng/mL |  |  |  | 
2 | wild-type ERT2: ER-LBD with G400V/M543A/L544A/V595A (SEQ ID NO: 3), benchmark construct ZF10-1_p65_ERT2 wild-type (protein) SAGDMRAANLWPSPLMIKRSKKNSLALSLTADQMVSALLDAEPPILYSEYDPTRPFSEASMMGLLTNLADRELVHMINWAKRVPGFVDLTLHDQVHLLECAWLEILMIGLVWRSMEHPVKLLFAPNLLLDRNQGKCVEGMVEIFDMLLATSSRFRMMNLQGEEFVCLKSIILLNSGVYTFLSSTLKSLEEKDHIHRVLDKITDTLIHLMAKAGLTLQQQHQRLAQLLLILSHIRHMSNKGMEHLYSMKCKNVVPLYDLLLEAADAHRLHAPTSRGGASVEETDQSHLATAGSTSSHSLQKYYITGEAEGFPATA |  | about 25 nM | about 25 nM |  | 
3 | SB06142: ZF10-1_p65_ERT2 variant L354I/L391V/N413D/M421L/S463P/M517A/H524L (protein) SAGDMRAANLWPSPLMIKRSKKNSLALSLTADQMVSALLDAEPPILYSEYDPTRPFSEASMMGLLTNLADREIVHMINWAKRVPGFVDLTLHDQVHLLECAWLEILMIGVVWRSMEHPVKLLFAPNLLLDRDQGKCVEGLVEIFDMLLATSSRFRMMNLQGEEFVCLKSIILLNSGVYTFLPSTLKSLEEKDHIHRVLDKITDTLIHLMAKAGLTLQQQHQRLAQLLLILSHIRHASNKGMELLYSMKCKNVVPLYDLLLEAADAHRLHAPTSRGGASVEETDQSHLATAGSTSSHSLQKYYITGEAEGFPATA |  |  |  | 0.1 | 0.1
4 | SB06145: ZF10-1_p65_ERT2 variant L409V/N413D/Q414E/M421L/S463P/H524L (protein) SAGDMRAANLWPSPLMIKRSKKNSLALSLTADQMVSALLDAEPPILYSEYDPTRPFSEASMMGLLTNLADRELVHMINWAKRVPGFVDLTLHDQVHLLECAWLEILMIGLVWRSMEHPVKLLFAPNLVLDRDEGKCVEGLVEIFDMLLATSSRFRMMNLQGEEFVCLKSIILLNSGVYTFLPSTLKSLEEKDHIHRVLDKITDTLIHLMAKAGLTLQQQHQRLAQLLLILSHIRHMSNKGMELLYSMKCKNVVPLYDLLLEAADAHRLHAPTSRGGASVEETDQSHLATAGSTSSHSLQKYYITGEAEGFPATA |  |  |  | 0.1 | 0.1
5 | SB06136: ZF10-1_p65_ERT2 variant L384M/L391V/N413D/M421L/S463P/H524L (protein) SAGDMRAANLWPSPLMIKRSKKNSLALSLTADQMVSALLDAEPPILYSEYDPTRPFSEASMMGLLTNLADRELVHMINWAKRVPGFVDLTLHDQVHLLECAWMEILMIGVVWRSMEHPVKLLFAPNLLLDRDQGKCVEGLVEIFDMLLATSSRFRMMNLQGEEFVCLKSIILLNSGVYTFLPSTLKSLEEKDHIHRVLDKITDTLIHLMAKAGLTLQQQHQRLAQLLLILSHIRHMSNKGMELLYSMKCKNVVPLYDLLLEAADAHRLHAPTSRGGASVEETDQSHLATAGSTSSHSLQKYYITGEAEGFPATA |  |  |  | 0.1 | 0.1
